Experimental data published in US20250263483A1 (TRUSTEES OF COLUMBIA UNIVERSITY IN THE CITY OF NEW YORK, published 2025).
Each block holds one binder with its values, some of them ahead of it.

Key:
[1] = biological target: T1, human PAG peptide (extracellular portion of human PAG) (human); test: ELISA on human PAG-1 peptide (FIG. 10)
T1 construct: The immunogen was amino acids 1-16 of human PAG; also called human PAG-1 peptide; human PAG protein
T1 peptide: MGPAGSLLGSGQMQIT

[2] = biological target: T2, mouse PAG, endogenous on wild-type C57BL6 splenocytes (mouse, UniProt Q3U1F9 1-429); test: flow cytometry, non-permeabilized WT vs PAG KO mouse splenocytes (FIG. 2B)
T2 construct: whole, on cells; also called murine PAG
T2 sequence (looked up): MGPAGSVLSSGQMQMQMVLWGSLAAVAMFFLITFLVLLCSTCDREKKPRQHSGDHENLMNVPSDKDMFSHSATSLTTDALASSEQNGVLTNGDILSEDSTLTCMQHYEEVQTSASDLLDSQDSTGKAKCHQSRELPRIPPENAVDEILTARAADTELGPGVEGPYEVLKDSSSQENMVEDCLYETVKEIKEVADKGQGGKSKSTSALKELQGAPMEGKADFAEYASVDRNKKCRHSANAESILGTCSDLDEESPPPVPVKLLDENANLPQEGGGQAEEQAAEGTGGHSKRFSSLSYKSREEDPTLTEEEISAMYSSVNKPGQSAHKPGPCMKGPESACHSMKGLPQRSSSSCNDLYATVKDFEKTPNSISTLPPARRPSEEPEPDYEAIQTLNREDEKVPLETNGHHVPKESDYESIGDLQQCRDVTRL
Description: (§1) Non-permeabilized cells were stained with the primary antibody clones in FACS Buffer [HBSS without Ca²⁺/Mg²⁺, FBS (3%), NaN3 (0.02%), and CaCl2 (2.5 mM)], then washed and stained with fluorescently conjugated secondary antibody (goat anti-mouse, Jackson ImmunoResearch, Cat. No. 115-006-003). Stained cells were then fixed in 1% paraformaldehyde. Splenocytes were pre-treated with Fc receptor block (Biolegend, Cat. No. 422301). PAG-GFP expressing cells were fixed in 1% paraformaldehyde. Events were recorded using FACSCanto (BD), and analyzed using FlowJo software (Ver. 10.8.1).

[3] = biological target: T1, human PAG peptide (extracellular …); test: dose-response ELISA, immobilized human PAG, purified monoclonal antibody (FIG. 2F)
Description: (§2) Primary ELISA was done for screening binding of hybridoma supernatants to human, murine, and cynomolgus PAG (2 μg/mL). Second ELISA for confirmation of binding of purified monoclonal antibodies to human PAG, 96-well half area high binding ELISA plates (Corning 3690) were coated 1 μg/mL of human PAG protein in 1×TBS at room temperature for 2 hours. The plate was washed with TBS containing 0.05% Tween 20 and blocked with 2% BSA in TBS for 1 hour at room temperature. After 1 hour, the plate was washed and diluted PAG antibodies in 1×TBS were dispensed to respective wells and incubated for 1 hour at room temperature. The plate was washed and incubated with peroxidase-Affinipure F(ab′)2 goat anti-mouse IgG (Jackson Immuno Research, Cat. No. 115-006-003) at 1:5000 dilution for 1 hour at room temperature. After the plate was washed, 3, 3′, 5, 5′ tetramethyl benzidine (TMB) substrate (Biolegend, Cat. No. 421101) was added to each well. The reaction was stopped by adding 2N H2SO4. Absorbance was measured on plate reader (Biotek Synergy H1) and results calculated by A=A450 nm-A570 nm.

[4] = biological target: T3, PAG-GFP (full-length human PAG fused to GFP) expressed on cells (human, UniProt Q9NWQ8 1-432); test: flow cytometry, non-permeabilized A549 cells stably expressing PAG-GFP (FIG. 7B; FIG. 2E)
T3 construct: Stably expressed in A549 cells (flow cytometry) and Jurkat T cells (microscopy); also called PAG-GFP (OE); not shown: GFP tag (peGFP-N1 / pCDH-PAG-GFP constructs)
T3 sequence: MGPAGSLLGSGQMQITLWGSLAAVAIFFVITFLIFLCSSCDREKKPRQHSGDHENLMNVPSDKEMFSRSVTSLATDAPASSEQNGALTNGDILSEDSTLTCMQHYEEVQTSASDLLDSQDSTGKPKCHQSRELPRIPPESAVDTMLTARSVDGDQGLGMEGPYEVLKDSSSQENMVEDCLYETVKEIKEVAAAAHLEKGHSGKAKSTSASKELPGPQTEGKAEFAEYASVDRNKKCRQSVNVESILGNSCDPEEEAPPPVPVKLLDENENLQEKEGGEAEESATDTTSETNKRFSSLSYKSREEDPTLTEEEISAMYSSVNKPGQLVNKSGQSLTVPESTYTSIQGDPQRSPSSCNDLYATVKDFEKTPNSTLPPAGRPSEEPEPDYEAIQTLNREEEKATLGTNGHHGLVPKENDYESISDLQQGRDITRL
Description: as §1

[5] = biological target: T1, human PAG peptide (extracellular …); test: dose-response ELISA, immobilized human PAG, purified monoclonal antibodies (FIG. 2F)
Description: as §2

binding result [1]: binds
B1: 7M-hu-1 (humanized version of 7M16A) (antibody, V domains shown)
VH: QVQLVQSGAEVKKPGASVKVSCKASGYTFTSYVMHWVRQAPGQGLEWMGYIYPYNDGTKYNEKFKGRVTMTRDTSTSTVYMELSSLRSEDTAVYYCARYKYGQGFAYWGQGTTVTVSS
VL: DIQMTQSPSSVSASVGDRVTITCRASENIYSNLAWYQQKPGKAPKLLIYAATNLADGVPSRFSGSGSGTDFTLTISSLQPEDFATYYCQHFWGTPWTFGGGTKLEIKR

binding result [2]: binds
binding result [3]: binds
binding result [4]: binds
B2: anti-PAG antibody clone 7M16A (antibody, mouse IgG1, kappa, V domains shown)
VH: EVQLQQSGPELVKPGASVKMSCKASGYTFTSYVMHWVKQKPGQGLEWIGYIYPYNDGTKYNEKFKGKATLTSDKSSSTAYMELSSLTSEDSAVYYCARYKYGQGFAYWGQGTRVTVSA
VL: DIQMTQSPASLSVSVGETVTITCRASENIYSNLAWYQQKQGKSPQLLVYAATNLADGVPSRFSGSGSGTQYSLKINSLQSEDFGSYYCQHFWGTPWTFGGGTKLEIKR
notes: Mouse hybridoma monoclonal, tested as hybridoma supernatant and as purified antibody

binding result [5]: no binding
B3: anti-PAG antibody clone 8D04A (antibody, mouse IgG1, kappa, V domains shown)
VH: QIQLVQSGPELKKPGETVKISCKASGYIFTNYGMNWVKQAPGKGLKWMGWINPYTGEATYDDDFKGRFAFSLETSANTAYLQINNLKNEDTATYFCAKTGTTYWGQGTLVTVSA
VL: QIVLTQSPAIMSASPGEKVTMTCSASSSVSYMYWYQQKSGTSPKRWIYDTSKLASGVPARFSGSGSGTSYSLTINNMEAEDAATYYCQQWSSNPLTFGAGTKLELKR
notes: Mouse hybridoma monoclonal
